In patent US6008019A, “Plasminogen activator from saliva of the vampire bat” (Schering Aktiengesellschaft, priority 1989, dated 1999):

Tests used:
[1] = substrate: CC[C@@H](C)[C@@H](N)C(=O)N1CCC[C@H]1C(=O)N[C@@H](CCCNC(=N)N)C(=O)Nc1ccc([N+](=O)[O-])cc1; test: Km determination of amidolytic chromogenic substrates with v-PA β; assay type: biochemical, Desmodus rotundus; conditions: other: v-PA β, 3 units per hole, 100 mM Tris pH 8.0/100 mM NaCl/0.01% Tween 80, 37° C., Lineweaver-Burk plot
Description: (§1) In a 96-hole plate, respectively 90 μl of 100 mM Tris pH 8.0/100 mM NaCl/0.01% "Tween" 80 and 50 μl of the corresponding chromogenic substrate (all from Kabi Vitrum, Stockholm, Sweden) in the final concentrations of 0.03/0.06/0.1/0.3/0.6 and 1 mM are incubated with 10 μl (3 units per hole) of the corresponding plasminogen activator at 37° C., and the thus-released p-nitroaniline is determined photometrically at 405 nm at various points in time between 0-7 hours. The resultant data are evaluated with the aid of a Lineweaver-Burk plot, and the Km value is determined (Segel, I. H., Enzyme Kinetics, John Wiley and Sons, New York). The following chromogenic substrates were utilized:

[2] = substrate: N=C(N)NCCC[C@H](NC(=O)CNC(=O)[C@@H]1CCC(=O)N1)C(=O)Nc1ccc([N+](=O)[O-])cc1; test: as above; assay type: biochemical, Desmodus rotundus; conditions: other: v-PA β, 3 units per hole, 100 mM Tris pH 8.0/100 mM NaCl/0.01% Tween 80, 37° C., Lineweaver-Burk plot
Description: as §1

[3] = substrate: CC[C@@H](C)[C@@H](N)C(=O)N1CCC[C@H]1C(=O)N[C@@H](CCCNC(=N)N)C(=O)Nc1ccc([N+](=O)[O-])cc1; test: Km determination of amidolytic chromogenic substrates with v-PA α1; assay type: biochemical, Desmodus rotundus; conditions: other: v-PA α1, 3 units per hole, 100 mM Tris pH 8.0/100 mM NaCl/0.01% Tween 80, 37° C., Lineweaver-Burk plot
Description: as §1

[4] = substrate: N=C(N)NCCC[C@H](NC(=O)CNC(=O)[C@@H]1CCC(=O)N1)C(=O)Nc1ccc([N+](=O)[O-])cc1; test: as above; assay type: biochemical, Desmodus rotundus; conditions: other: v-PA α1, 3 units per hole, 100 mM Tris pH 8.0/100 mM NaCl/0.01% Tween 80, 37° C., Lineweaver-Burk plot
Description: as §1

[5] = substrate: N=C(N)NCCC[C@H](NC(=O)CNC(=O)[C@@H]1CCC(=O)N1)C(=O)Nc1ccc([N+](=O)[O-])cc1; test: Km determination of amidolytic chromogenic substrates with t-PA; assay type: biochemical; conditions: other: t-PA, 3 units per hole, 100 mM Tris pH 8.0/100 mM NaCl/0.01% Tween 80, 37° C., Lineweaver-Burk plot
Description: as §1

B1: Desmodus rotundus saliva plasminogen activator v-PA β (Desmodus rotundus) (protein)
chain: AYGGCSELRCFNGGTCWQAASFSDFVCQCPKGYTGKQCEVDTHATCYKDQGVTYRGTWSTSESGAQCINWNSNLLTRRTYNGRRSDAITLGLGNHNYCRNPDNNSKPWCYVIKASKFILEFCSVPVCSKATCGLRKYKEPQLHSTGGLFTDITSHPWQAAIFAQNRRSSGERFLCGGILISSCWVLTAAHCFQERYPPQHLRVVLGRTYRVKPGKEEQTFEVEKCIIHEEFDDDTYNNDIALLQLKSGSPQCAQESDSVRAICLPEANLQLPDWTECELSGYGKHKSSSPFYSEQLKEGHVRLYPSSRCTSKFLFNKTVTNNMLCAGDTRSGEIYPNVHDACQGDSGGPLVCMNDNHMTLLGIISWGVGCGEKDIPGVYTKVTNYLGWIRDNMRP
notes: from tissue
- Km [1]: 2000 µM
- Km [2]: 2000 µM

B2: Desmodus rotundus saliva plasminogen activator v-PA α1 (Desmodus rotundus) (protein)
chain: AYGVACKDEITQMTYRRQESWLRPEVRSKRVEHCQCDRGQARCHTVPVNSCSEPRCFNGGTCWQAVYFSDFVCQCPAGYTGKRCEVDTRATCYEGQGVTYRGTWSTAESRVECINWNSSLLTRRTYNGRMPDAFNLGLGNHNYCRNPNGAPKPWCYVIKAGKFTSESCSVPVCSKATCGLRKYKEPQLHSTGGLFTDITSHPWQAAIFAQNRRSSGERFLCGGILISSCWVLTAAHCFQESYLPDQLKVVLGRTYRVKPGEEEQTFKVKKYIVHKEFDDDTYNNDIALLQLKSDSPQCAQESDSVRAICLPEANLQLPDWTECELSGYGKHKSSSPFYSEQLKEGHVRLYPSSRCAPKFLFNKTVTNNMLCAGDTRSGEIYPNVHDACQGDSGGPLVCMNDNHMTLLGIISWGVGCGEKDVPGVYTKVTNYLGWIRDNMHL
notes: from tissue
- Km [3]: 1000 µM
- Km [4]: 2000 µM

B3: t-PA (tissue-type plasminogen activator) (Homo sapiens) (protein)
chain: SYQVICRDEKTQMIYQQHQSWLRPVLRSNRVEYCWCNSGRAQCHSVPVKSCSEPRCFNGGTCQQALYFSDFVCQCPEGFAGKCCEIDTRATCYEDQGISYRGTWSTAESGAECTNWNSSALAQKPYSGRRPDAIRLGLGNHNYCRNPDRDSKPWCYVFKAGKYSSEFCSTPACSEGNSDCYFGNGSAYRGTHSLTESGASCLPWNSMILIGKVYTAQNPSAQALGLGKHNYCRNPDGDAKPWCHVLKNRRLTWEYCDVPSCSTCGLRQYSQPQFRIKGGLFADIASHPWQAAIFAKHRRSPGERFLCGGILISSCWILSAAHCFQERFPPHHLTVILGRTYRVVPGEEEQKFEVEKYIVHKEFDDDTYDNDIALLQLKSDSSRCAQESSVVRTVCLPPADLQLPDWTECELSGYGKHEALSPFYSERLKEAHVRLYPSSRCTSQHLLNRTVTDNMLCAGDTRSGGPQANLHDACQGDSGGPLVCLNDGRMTLVGIISWGLGCGQKDVPGVYTKVTNYLDWIRDNMRP
- Km [5]: 2000 µM
